Laboratory results published in patent US9908923 (MEDICAL COLLEGE OF WISCONSIN, dated 2018).
Non-standard residues stand in square brackets, D forms with d. sY = N[C@@H](Cc1ccc(OS(=O)(=O)O)cc1)C(=O)O

What was measured:
[1] = biological target: T1, CXCL12WT (wild type CXCL12) (Homo sapiens (Human), UniProt P48061 22-89); assay: 125I-CXCL12 radioligand displacement on CXCR4 II/AA (I4A/I6A); displaced tracer 125I-CXCL12
T1 construct: Recombinant, expressed and purified as previously described; [U-15N]-labelled in the NMR titrations; In monomer-dimer equilibrium; also called stromal cell-derived factor-1; SDF-1

[2] = biological target: T1, CXCL12WT (wild type CXCL12); assay: ΔG = -RT ln Kd at 298 K from the NMR titration
Experimental: (§1) Each peptide was acetylated and amidated to create uncharged N- and C-termini, respectively. […] For each titration, the chemical shift change of every residue was used to identify the binding site and calculate the interaction affinity.
(§2) Total peptide additions differed for individual peptide titrations but ranged from 0-160 equivalencies. Spectra were processed using in-house scripts and chemical shift tracking was performed using CARA software. Combined ^1H/^15N chemical shift perturbations were calculated as $((5\ \Delta\delta_H)^2+(\Delta\deltaNH)^2)^{0.5}$, where δ_H and $\deltaNH$ are the amide proton and nitrogen chemical shifts, respectively. Equilibrium dissociation constants (K_d) were determined by non-linear fitting of the combined ^1H/^15N_H chemical shift perturbations as a function of peptide concentration to a single-site quadratic equation. For a given interaction, residues with the largest chemical shift perturbations were fitted individually. The resulting K_d values and their respective fitting errors were then averaged to produce the reported affinity and standard deviation for that interaction.

[3] = biological target: T2, CXCL121 (constitutively monomeric CXCL12 variant, L55C/I58C) (Felis catus (Cat) (Felis silvestris …, UniProt O62657 22-89, engineered disulfide between Cys55 and Cys58)); assay: ΔG = -RT ln Kd at 298 K from the NMR titration
T2 construct: also called CXCL12 locked monomer; LM
Experimental: as §1, §2

[4] = biological target: T3, CXCL122 (constitutively dimeric CXCL12 variant, L36C/A65C) (Homo sapiens (Human), UniProt P48061 22-89, disulfide-locked dimer through the engineered cysteines); assay: ΔG = -RT ln Kd at 298 K from the NMR titration; non-specific binding to sY21 position
T3 construct: it is described as a variant of CXCL12 containing L36C/A65C mutations; also called CXCL12 locked dimer; LD
Experimental: as §1, §2

[5] = biological target: T1, CXCL12WT (wild type CXCL12); assay: NMR 1H-15N HSQC titration of peptide into 15N-labelled chemokine, chemical shift perturbations fitted to a quadratic binding equation, 298 K
Experimental: as §1, §2

[6] = biological target: T2, CXCL121 (constitutively monomeric …); assay: as above
Experimental: as §1, §2

[7] = biological target: T1, CXCL12WT (wild type CXCL12); assay: NMR titrations
Experimental: as §1, §2

[8] = biological target: T2, CXCL121 (constitutively monomeric …); assay: NMR titrations (Table 1)
Experimental: as §1, §2

[9] = biological target: T3, CXCL122 (constitutively dimeric CXCL12 …); assay: NMR titrations
Experimental: as §1, §2

[10] = biological target: T3, CXCL122 (constitutively dimeric CXCL12 …); assay: ΔG = -RT ln Kd at 298 K from the NMR titration
Experimental: as §1, §2

[11] = biological target: T3, CXCL122 (constitutively dimeric CXCL12 …); assay: NMR 1H-15N HSQC titration of peptide into 15N-labelled chemokine, chemical shift perturbations fitted to a quadratic binding equation, 298 K
Experimental: as §1, §2

T2 sequence (O62657 22-89 L76C/I79C limits assumed): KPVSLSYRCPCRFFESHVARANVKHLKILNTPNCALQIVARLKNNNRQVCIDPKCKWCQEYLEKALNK
T3 sequence (P48061 22-89 L57C/A86C limits assumed): as the sequence (O62657 22-89 L76C/I79C limits assumed) above, with L36C, C55L, C58I, A65C counted along it
T1 sequence (P48061 22-89 limits assumed): as the sequence (O62657 22-89 L76C/I79C limits assumed) above, with C55L, C58I counted along it

Binder	binding result [1]	ΔG [2] [kcal/mol]	ΔG [3] [kcal/mol]	ΔG [4] [kcal/mol]	Kd [5] [µM]	Kd [6] [µM]	fold higher affinity than the sTyr7 sulfopeptide [7] [fold]	fold stronger binding than the sTyr7 sulfopeptide [8] [fold]	fold stronger binding than the unsulfated variant [9] [fold]	fold stronger binding than to CXCL12WT or CXCL121 [9] [fold]	ΔG [10] [kcal/mol]	Kd [11] [µM]
FLAG-hCXCR4 Ile4Ala/Ile6Ala (receptor, human, UniProt P61073 1-352, looked up, whole, on cells; also called CXCR4 (I4A/I6A); not shown: FLAG tag) MEGASAYTSDNYTEEMGSGDYDSMKEPCFREENANFNKIFLPTIYSIIFLTGIVGNGLVILVMGYQKKLRSMTDKYRLHLSVADLLFVITLPFWAVDAVANWYFGNFLCKAVHVIYTVNLYSSVLILAFISLDRYLAIVHATNSQRPRKLLAEKVVYVGVWIPALLLTIPDFIFANVSEADDRYICDRFYPNDLWVVVFQFQHIMVGLILPGIVILSCYCIIISKLSHSKGHQKRKALKTTVILILAFFACWLPYYIGISIDSFILLEIIKQGCEFENTVHKWISITEALAFFHCCLNPILYAFLGAKFKTSAQHALTSVSRGSSLKILSKGKRGGHSSVSTESESSSFHSS	binds	–	–	–	–	–	–	–	–	–	–	–
Ac-ISI[sY]TSD-NH2 (SMILES CC[C@H](C)[C@H](NC(C)=O)C(=O)N[C@@H](CO)C(=O)N[C@H](C(=O)N[C@@H](Cc1ccc(OS(=O)(=O)O)cc1)C(=O)N[C@H](C(=O)N[C@@H](CO)C(=O)N[C@@H](CC(=O)O)C(N)=O)[C@@H](C)O)[C@@H](C)CC, Synthetic CXCR4 heptapeptide, residues 4-10) [4ISIsYTSD10 (sTyr7 sulfopeptide)]	–	-3.22	-3.02	-4.65	4300	6100	–	–	–	–	–	–
Ac-SDNYTEE-NH2 (Synthetic CXCR4 heptapeptide, residues 9-15; also called unsulfated Tyr12 peptide) [9SDNYTEE15 (Tyr12 peptide)]	–	-3.65	-3.5	–	–	2700	–	–	–	–	-4.74	–
Ac-SDN[sY]TEE-NH2 (SMILES CC(=O)N[C@@H](CO)C(=O)N[C@@H](CC(=O)O)C(=O)N[C@@H](CC(N)=O)C(=O)N[C@@H](Cc1ccc(OS(=O)(=O)O)cc1)C(=O)N[C@H](C(=O)N[C@@H](CCC(=O)O)C(=O)N[C@@H](CCC(=O)O)C(N)=O)[C@@H](C)O, Synthetic CXCR4 heptapeptide, residues 9-15) [9SDNsYTEE15 (sTyr12 sulfopeptide)]	–	-4.09	-3.74	-4.87	–	1800	–	–	–	–	–	–

Further lines, results first:

binding result [1]	ΔG [2] [kcal/mol]	ΔG [3] [kcal/mol]	ΔG [4] [kcal/mol]	Kd [5] [µM]	Kd [6] [µM]	fold higher affinity than the sTyr7 sulfopeptide [7] [fold]	fold stronger binding than the sTyr7 sulfopeptide [8] [fold]	fold stronger binding than the unsulfated variant [9] [fold]	fold stronger binding than to CXCL12WT or CXCL121 [9] [fold]	ΔG [10] [kcal/mol]	Kd [11] [µM]	Binder
–	-3.71	-4.03	-4.6	1900	1100	2	~5	–	–	–	–	Ac-ISIYTSD-NH2 (Synthetic CXCR4 heptapeptide, residues 4-10; also called CXCR4 Ile4-Asp10 heptapeptide) [4ISIYTSD10 (unsulfated Tyr7 peptide)]
–	-3.74	-3.81	–	1800	1600	–	–	4	20	-5.01	211	Ac-SGD[sY]DSM-NH2 (SMILES CSCC[C@H](NC(=O)[C@H](CO)NC(=O)[C@H](CC(=O)O)NC(=O)[C@H](Cc1ccc(OS(=O)(=O)O)cc1)NC(=O)[C@H](CC(=O)O)NC(=O)CNC(=O)[C@H](CO)NC(C)=O)C(N)=O, Synthetic CXCR4 heptapeptide, residues 18-24; also called sulfated Tyr21 peptide) [18SGDsYDSM24 (sTyr21 sulfopeptide)]
–	–	-7.43	–	–	3.5	–	–	–	–	-8.24	0.9	GMMEGISIYTSDNYTEEMGSGDYDSMKEPAFREENANFNK (range 1-38; Unsulfated recombinant peptide; also called CXCR4 N-terminal domain; CXCR1-38) [CXCR41-38 (first 38 amino acids of CXCR4 preceded by a GlyMet dipeptide tag)]
–	-3.5	-3.85	–	2700	1500	–	–	–	–	-4.2	831	Ac-SGDYDSM-NH2 (Synthetic CXCR4 heptapeptide, residues 18-24; also called unsulfated Tyr21 peptide) [18SGDYDSM24 (Tyr21 peptide)]
